The values below are quoted from earlier work in article PMC5289555.

For data set [1], the target named is Hsp90 (Saccharomyces cerevisiae) (UniProt P02829).
For data set [2], the target named is Hsp90 zipped construct (Saccharomyces cerevisiae) (UniProt P02829).

Regarding Hsp90 (from UniProt P02829), the Kd – broadly, the concentration at which binding is half-saturated – in data set [1] is 60 nM.
On to “Hsp90 zipped construct (from UniProt P02829)”, for which, in data set [2], the dissociation constant (Kd) is less than 0.001 nM.
